For data set [1], the system named is cell-surface antigens on SK-MEL 28 melanoma cells. Kind of data set: Fluorescence activated cell sorting competition binding assay against FITC-modified whole L49. Also on record: species or system human. The following applies: FACS competition assay. On the procedure:
FIG. 7 depicts a competition binding assay. 3677 cells were incubated with various combinations of the test samples (L49, L49-sFv-bL, L49-Fab'-bL, and FITC-modified whole L49, keeping the total mAb concentration (test sample+L49-FITC) constant at 400 nM. Fluorescence intensity was determined by fluorescence activated cell sorter analysis.
Competition binding experiments were performed as described by Svensson et al.(Bioconjugate Chem., 3:176-181 (1992)). Immunoassays were performed by coating polystyrene 96 well plates with sp97 (0.1 mL, 2 μg/ml in PBS, overnight, 4° C.) After blocking with specimen diluent (Genetic Systems Corp.) for 1 h at 22° C., the blocking solution was replaced with fresh specimen diluent (0.1 ml) containing serial dilutions of the samples. After 1 h at 22° C. the plates were washed, followed by development with 0.1 mL of a nitrocefin (O'Callaghan et al., Antimicrobial Agents and Chemotherapy, 1:283-288 (1972)) solution (0.1 mM in PBS/1% dimethylformamide, 15 min, 22° C. Absorbance measurements were read in an plate reader using a 490 nm filter with 630 nm as the reference wavelength.
The binding characteristics of the sFv portion of the fusion protein were determined using a fluorescent activated cell sorting competition assay in which fusion protein and FITC-modified whole L49 competed for binding to cell-surface antigens on SK-MEL 28 melanoma cells. […]

The target in a further data set is T1, p97 antigen (Homo sapiens, UniProt P08582).
T1 sequence (P08582 20-738): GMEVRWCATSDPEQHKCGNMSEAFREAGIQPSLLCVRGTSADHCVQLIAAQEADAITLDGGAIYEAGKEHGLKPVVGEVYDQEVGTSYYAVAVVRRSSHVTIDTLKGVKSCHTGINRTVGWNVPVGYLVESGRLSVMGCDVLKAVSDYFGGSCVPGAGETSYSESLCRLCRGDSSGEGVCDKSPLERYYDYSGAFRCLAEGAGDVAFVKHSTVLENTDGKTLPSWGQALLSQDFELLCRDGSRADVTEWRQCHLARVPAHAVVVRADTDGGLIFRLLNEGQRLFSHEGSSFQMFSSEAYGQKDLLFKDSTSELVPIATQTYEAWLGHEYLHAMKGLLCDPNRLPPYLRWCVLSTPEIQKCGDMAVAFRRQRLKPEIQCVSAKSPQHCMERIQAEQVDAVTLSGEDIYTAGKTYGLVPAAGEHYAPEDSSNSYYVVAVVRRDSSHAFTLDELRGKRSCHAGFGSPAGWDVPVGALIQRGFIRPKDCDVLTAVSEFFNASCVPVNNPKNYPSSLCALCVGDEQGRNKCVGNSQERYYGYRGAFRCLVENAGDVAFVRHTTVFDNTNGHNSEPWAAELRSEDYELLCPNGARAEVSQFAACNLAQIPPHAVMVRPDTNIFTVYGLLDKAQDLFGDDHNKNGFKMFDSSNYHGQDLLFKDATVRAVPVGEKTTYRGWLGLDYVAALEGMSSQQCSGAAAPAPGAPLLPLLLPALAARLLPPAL
Kind of data set: Surface plasmon resonance binding to immobilized p97 antigen. As to conditions: p97 immobilized on gold surface. On the procedure:
The binding characteristics of the sFv portion of the fusion protein were determined using a fluorescent activated cell sorting competition assay in which fusion protein and FITC-modified whole L49 competed for binding to cell-surface antigens on SK-MEL 28 melanoma cells. […] More detailed information about binding was obtained using surface plasmon resonance, which allowed the measurement of the on and off rates of L49-sFv-bL binding to the p97 antigen immobilized on a gold surface (Table 1).
For orientation: SPR reads the build-up and loss of mass on a sensor chip optically.

In the next data set the test system is 3677 melanoma cells. Kind of data set: In vitro cytotoxicity, [3H]thymidine incorporation. In kind it is cell-based, human. On the procedure: In Vitro Cytotoxicity. 3677 melanoma cells were plated into 96-well microliter plates (10^4 cells/well in 100 μL of Iscove's Modified Dulbecco's Medium (IMDM) with 10% fetal bovine serum, penicillin (60 μg/ml), and streptomycin (100 μg/ml) and allowed to adhere overnight. For blocking experiments, the cells were incubated with unconjugated L49 at 1 μM for 30 min. prior to treatment with the L49 conjugates. The cells were treated with L49-sFv-bL or L49 Fab'-bL at 10 nM. After 30 min. at 4° C., the plates were washed three times with antibiotic-free RPMI 1640 media (Gibco) with 10% fetal bovine serum, and then varying concentrations of CCM (FIG. 1) were added. CCM and PDM were also added to cells treated with media alone. After 1 h at 37° C., cells were washed three times with IMDM and incubated approximately 18 h at 37° C. The cells were then pulsed for 12 h with [^3 H] thymidine (1 μCi/well) at 37° C., detached by freezing at -20° C. and thawing, and harvested onto glass fiber filter mats using a 96-well harvester (Wallac, Gaithersburg, Md.). Radioactivity was counted using a LKB Wallac β-plate counter.
In Vitro Cytotoxicity. […] Radioactivity was counted using a LKB Wallac β-plate counter.
The cytotoxic effects of L49-sFv-bL in combination with CCM were determined on 3677 human melanoma cells, which express the p97 antigen. […]
Background: Incorporation of labelled thymidine or its analogues reports DNA synthesis.

Data set [2] is described as follows: Michaelis-Menten kinetic analysis of bL activity with nitrocefin as substrate. In kind it is biochemical. From the text:
Enzymatic activity assays of the bL portion of L49-sFv-bL were undertaken using nitrocefin as the enzyme substrate (Table 1). […] Thus, both the binding of the L49 antibody and enzymatic activity of the E. cloacae r2-1 bL were preserved in the fusion protein.

B1: L49-sFv-bL: recombinant fusion protein: L49 anti-p97 single-chain Fv (VH-218 linker-VL) fused to r2-1 mutant E. cloacae β-lactamase, SEQ ID NO: 20 (protein)
chain: MKYLLPTAAAGLLLLAAQPAMAEVQLQESGPSLVKPSQTLSLTCSVTGDSITSGYWNWIRKFPGNKLEYMGYISDSGITYYNPSLKSRISITRDTSKNQYYLQLNFVTAEDTATYNCARRTLATYYAMDYWGQGTSVTVSSGSTSGSGKPGSGEGSTKGDFVMTQTPLSLPVSLGDQASISCRASQSLVHSNGNTYLHWYLQKPGQSPKLLIYRVSNRFSGVPDRFSGSGSGTDFTLKISRVEAEDLGVYFCSQSTHVPPTFGGGTKLEIKRTPVSEKQLAEVVANTITPLMKAQSVPGMAVAVIYQGKPHYYTFGKADIAANKPVTPQTLFELGSISKTFTGVLGGDAIARGEISLDDAVTRYWPQLTGKQWQGIRMLDLATYTAGGLPLQVPDEVTDNASLLRFYQNWQPQWKPGTTRLYANASIGLFGALAVKPSGMPYEQAMTTRVLKPLKLDHTWINVPKAEEAHYAWGYRDGKAVRVSPGMLDAQAYGVKTNVQDMANWVMANMAPENVADASLKQGIALAQSRYWRIGSMYQGLGWEMLNWPVEANTVVETSFGNVALAPLPVAEVNPPAPPVKASWVHKTGSTGGFGSYVAFIPEKQIGIVMLANTSYPNPARVEAAYHILEALQTSEFE
Turning to B1, in data set [1], the “binding to the cell line in competition with FITC-modified whole L49” value was “bound equally well”. For the same molecule, in the data set with p97 antigen, the dissociation constant (Kd) turned out to be 1 nM and the koff worked out at 0.00042 s⁻¹. For the same molecule, the “cytotoxic activity of conjugate + CCM combination” value in the data set with 3677 melanoma cells (conjugate 10 nM, washed, then CCM 1 h) was “equivalent in activity to PDM”. Further, the “activation of CCM on cells previously saturated with L49 mAb” value in the data set with 3677 melanoma cells (unconjugated L49 1 μM before the fusion protein) is on record as “did not activate CCM”. Also, in data set [2], the Km amounted to 19 µM, the “enzymatic activity relative to the mutant bL enzyme” value is recorded as “retained the full enzymatic activity” and the kcat turned out to be 232 s⁻¹.

Usually Kd stands for the concentration at which binding is half-saturated. A high value points to weaker binding. For orientation: koff means the rate constant with which the complex falls apart. Low values mean a long-lived complex, high ones a short-lived complex. As a reminder, the Km is the concentration of substrate that gives half-maximal velocity. What is called kcat is the number of substrate molecules converted per active site and unit of time at saturation.
